# Results reported in IntAct's records for PubMed 31515488.
# B1: Low-density lipoprotein receptor class A domain-containing protein 1 (Homo sapiens), Q5T700 (parent)
# chain: MNKVFPQGENGYTAAESKAHPGGEAGGGHLCCSRRGACLSASLLLLLATVAALIALVTILGLPSCTPGAQACITLTNRTGFLCHDQRSCIPASGVCDGVRTCTHGEDEDESLCRDVPQSLPHFLVAHCGDPASWIYSDQKCDGTNNCGDCSDELSPVTVCPPCGPGWWRCPSTFFKYCDCIPRHLCRDHVQHCSDWSDEYACPGP
# B2: Four and a half LIM domains protein 2 (Homo sapiens), Q14192 (parent)
# chain: MTERFDCHHCNESLFGKKYILREESPYCVVCFETLFANTCEECGKPIGCDCKDLSYKDRHWHEACFHCSQCRNSLVDKPFAAKEDQLLCTDCYSNEYSSKCQECKKTIMPGTRKMEYKGSSWHETCFICHRCQQPIGTKSFIPKDNQNFCVPCYEKQHAMQCVQCKKPITTGGVTYREQPWHKECFVCTACRKQLSGQRFTARDDFAYCLNCFCDLYAKKCAGCTNPISGLGGTKYISFEERQWHNDCFNCKKCSLSLVGRGFLTERDDILCPDCGKDI
# partner: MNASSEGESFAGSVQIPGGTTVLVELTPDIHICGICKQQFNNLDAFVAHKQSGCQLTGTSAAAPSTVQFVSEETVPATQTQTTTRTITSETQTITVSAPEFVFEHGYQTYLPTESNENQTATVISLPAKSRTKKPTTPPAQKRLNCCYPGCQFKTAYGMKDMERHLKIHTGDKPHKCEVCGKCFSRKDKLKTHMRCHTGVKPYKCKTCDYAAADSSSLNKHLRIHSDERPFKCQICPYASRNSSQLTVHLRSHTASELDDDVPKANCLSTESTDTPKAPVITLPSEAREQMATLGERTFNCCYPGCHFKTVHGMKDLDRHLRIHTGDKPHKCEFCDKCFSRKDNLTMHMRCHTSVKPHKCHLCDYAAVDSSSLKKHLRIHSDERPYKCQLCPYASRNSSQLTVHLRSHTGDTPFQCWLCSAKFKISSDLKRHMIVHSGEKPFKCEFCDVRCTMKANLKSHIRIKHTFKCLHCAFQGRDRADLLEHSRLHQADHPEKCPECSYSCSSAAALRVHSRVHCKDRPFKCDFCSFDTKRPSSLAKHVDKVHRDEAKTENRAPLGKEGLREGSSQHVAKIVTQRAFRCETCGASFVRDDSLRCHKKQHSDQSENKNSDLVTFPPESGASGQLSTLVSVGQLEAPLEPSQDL
# B3: Baculoviral IAP repeat-containing protein 7 (Homo sapiens), Q96CA5-1 (parent)
# chain: MGPKDSAKCLHRGPQPSHWAAGDGPTQERCGPRSLGSPVLGLDTCRAWDHVDGQILGQLRPLTEEEEEEGAGATLSRGPAFPGMGSEELRLASFYDWPLTAEVPPELLAAAGFFHTGHQDKVRCFFCYGGLQSWKRGDDPWTEHAKWFPSCQFLLRSKGRDFVHSVQETHSQLLGSWDPWEEPEDAAPVAPSVPASGYPELPTPRREVQSESAQEPGGVSPAEAQRAWWVLEPPGARDVEAQLRRLQEERTCKVCLDRAVSIVFVPCGHLVCAECAPGLQLCPICRAPVRSRVRTFLS
# B4: Maspardin (Homo sapiens), Q9NZD8 (parent)
# chain: MGEIKVSPDYNWFRGTVPLKKIIVDDDDSKIWSLYDAGPRSIRCPLIFLPPVSGTADVFFRQILALTGWGYRVIALQYPVYWDHLEFCDGFRKLLDHLQLDKVHLFGASLGGFLAQKFAEYTHKSPRVHSLILCNSFSDTSIFNQTWTANSFWLMPAFMLKKIVLGNFSSGPVDPMMADAIDFMVDRLESLGQSELASRLTLNCQNSYVEPHKIRDIPVTIMDVFDQSALSTEAKEEMYKLYPNARRAHLKTGGNFPYLCRSAEVNLYVQIHLLQFHGTKYAAIDPSMVSAEELEVQKGSLGISQEEQ
# partner: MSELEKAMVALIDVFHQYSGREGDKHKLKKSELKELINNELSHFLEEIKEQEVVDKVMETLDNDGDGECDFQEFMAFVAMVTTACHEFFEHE
# B5: Centrosomal protein POC5 (Homo sapiens), Q8NA72 (parent)
# chain: MSSDEEKYSLPVVQNDSSRGSSVSSNLQEEYEELLHYAIVTPNIEPCASQSSHPKGELVPDVRISTIHDILHSQGNNSEVRETAIEVGKGCDFHISSHSKTDESSPVLSPRKPSHPVMDFFSSHLLADSSSPATNSSHTDAHEILVSDFLVSDENLQKMENVLDLWSSGLKTNIISELSKWRLNFIDWHRMEMRKEKEKHAAHLKQLCNQINELKELQKTFEISIGRKDEVISSLSHAIGKQKEKIELMRTFFHWRIGHVRARQDVYEGKLADQYYQRTLLKKVWKVWRSVVQKQWKDVVERACQARAEEVCIQISNDYEAKVAMLSGALENAKAEIQRMQHEKEHFEDSMKKAFMRGVCALNLEAMTIFQNRNDAGIDSTNNKKEEYGPGVQGKEHSAHLDPSAPPMPLPVTSPLLPSPPAAVGGASATAVPSAASMTSTRAASASSVHVPVSALGAGSAATAASEEMYVPRVVTSAQQKAGRTITARITGRCDFASKNRISSSLAIMGVSPPMSSVVVEKHHPVTVQTIPQATAAKYPRTIHPESSTSASRSLGTRSAHTQSLTSVHSIKVVD
# B6: Stabilizer of axonemal microtubules 1 (Homo sapiens), Q8IYX7 (parent)
# chain: MKTKCICELCSCGRHHCPHLPTKIYDKTEKPCLLSEYTENYPFYHSYLPRESFKPRREYQKGPIPMEGLTTSRRDFGPHKVAPVKVHQYDQFVPSEENMDLLTTYKKDYNPYPVCRVDPIKPRDSKYPCSDKMECLPTYKADYLPWNQPRREPLRLEHKYQPASVRFDNRTTHQDDYPIKGLVKTISCKPLAMPKLCNIPLEDVTNYKMSYVAHPVEKRFVHEAEKFRPCEIPFESLTTQKQSYRGLMGEPAKSLKPLARPPGLDMPFCNTTEFRDKYQAWPMPRMFSKAPITYVPPEDRMDLLTTVQAHYTCPKGAPAQSCRPALQIKKCGRFEGSSTTKDDYKQWSSMRTEPVKPVPQLDLPTEPLDCLTTTRAHYVPHLPINTKSCKPHWSGPRGNVPVESQTTYTISFTPKEMGRCLASYPEPPGYTFEEVDALGHRIYKPVSQAGSQQSSHLSVDDSENPNQRELEVLA
# Variants of: B1
# Conditions: with bni3l_human BNIP3L
row,Variant,effect of a mutation on the interaction
1,G105S,with no effect

# Variants of: B1
# Conditions: with tm147_human TMEM147, Q9BVK8
# tm147_human TMEM147, Q9BVK8, sequence (Q9BVK8 whole entry): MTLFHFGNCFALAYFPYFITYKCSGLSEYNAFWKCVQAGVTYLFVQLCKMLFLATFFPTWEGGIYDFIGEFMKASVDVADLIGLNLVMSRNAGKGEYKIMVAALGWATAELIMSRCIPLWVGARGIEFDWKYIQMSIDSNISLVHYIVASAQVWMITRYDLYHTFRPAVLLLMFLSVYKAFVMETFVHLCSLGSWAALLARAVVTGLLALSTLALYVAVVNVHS
row,Variant,effect of a mutation on the interaction
1,G105S,with no effect

# Variants of: B1
# Conditions: with mal_human MAL
row,Variant,effect of a mutation on the interaction
1,G105S,with no effect

# Variants of: B2
# Conditions: with zf64b_human ZFP64, Q9NTW7
row,Variant,effect of a mutation on the interaction
1,N95K,with no effect
2,A37S,with no effect

# Variants of: B3
# Conditions: with phf1_human PHF1, O43189
# phf1_human PHF1, O43189, sequence (O43189 whole entry): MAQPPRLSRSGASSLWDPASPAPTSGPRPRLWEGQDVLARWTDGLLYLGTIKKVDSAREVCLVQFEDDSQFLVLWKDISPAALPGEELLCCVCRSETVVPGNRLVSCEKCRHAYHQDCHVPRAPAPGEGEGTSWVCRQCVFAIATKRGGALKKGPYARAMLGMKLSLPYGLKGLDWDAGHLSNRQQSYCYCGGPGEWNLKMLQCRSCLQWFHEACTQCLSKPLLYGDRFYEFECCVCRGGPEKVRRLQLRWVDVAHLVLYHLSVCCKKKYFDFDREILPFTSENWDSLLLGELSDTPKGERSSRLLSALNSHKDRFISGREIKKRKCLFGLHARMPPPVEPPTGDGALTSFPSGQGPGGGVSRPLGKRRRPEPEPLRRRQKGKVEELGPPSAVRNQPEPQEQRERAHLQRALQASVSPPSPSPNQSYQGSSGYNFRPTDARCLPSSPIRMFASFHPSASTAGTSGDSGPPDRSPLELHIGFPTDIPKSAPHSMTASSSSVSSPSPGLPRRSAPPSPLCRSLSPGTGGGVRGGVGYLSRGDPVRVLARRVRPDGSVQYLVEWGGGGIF
row,Variant,effect of a mutation on the interaction
1,H164R,with no effect

# Variants of: B3
# Conditions: with ddx6_human DDX6, P26196
# ddx6_human DDX6, P26196, sequence (P26196 whole entry): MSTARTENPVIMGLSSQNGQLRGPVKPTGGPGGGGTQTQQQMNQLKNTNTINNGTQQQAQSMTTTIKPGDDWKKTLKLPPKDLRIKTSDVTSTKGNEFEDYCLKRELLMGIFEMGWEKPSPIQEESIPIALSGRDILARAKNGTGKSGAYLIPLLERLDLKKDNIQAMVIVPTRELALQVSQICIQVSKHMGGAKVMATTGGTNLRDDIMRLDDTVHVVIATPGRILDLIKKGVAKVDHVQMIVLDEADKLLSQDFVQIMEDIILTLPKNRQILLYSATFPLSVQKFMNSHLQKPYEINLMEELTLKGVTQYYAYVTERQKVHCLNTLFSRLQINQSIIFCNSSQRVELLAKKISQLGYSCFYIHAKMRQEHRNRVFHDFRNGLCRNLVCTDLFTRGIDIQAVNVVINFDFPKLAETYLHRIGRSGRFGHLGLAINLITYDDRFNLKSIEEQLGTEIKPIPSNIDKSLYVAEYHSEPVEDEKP
row,Variant,effect of a mutation on the interaction
1,H164R,with no effect

# Variants of: B3
# Conditions: with birc2_human BIRC2, Q13490
# birc2_human BIRC2, Q13490, sequence (Q13490 whole entry): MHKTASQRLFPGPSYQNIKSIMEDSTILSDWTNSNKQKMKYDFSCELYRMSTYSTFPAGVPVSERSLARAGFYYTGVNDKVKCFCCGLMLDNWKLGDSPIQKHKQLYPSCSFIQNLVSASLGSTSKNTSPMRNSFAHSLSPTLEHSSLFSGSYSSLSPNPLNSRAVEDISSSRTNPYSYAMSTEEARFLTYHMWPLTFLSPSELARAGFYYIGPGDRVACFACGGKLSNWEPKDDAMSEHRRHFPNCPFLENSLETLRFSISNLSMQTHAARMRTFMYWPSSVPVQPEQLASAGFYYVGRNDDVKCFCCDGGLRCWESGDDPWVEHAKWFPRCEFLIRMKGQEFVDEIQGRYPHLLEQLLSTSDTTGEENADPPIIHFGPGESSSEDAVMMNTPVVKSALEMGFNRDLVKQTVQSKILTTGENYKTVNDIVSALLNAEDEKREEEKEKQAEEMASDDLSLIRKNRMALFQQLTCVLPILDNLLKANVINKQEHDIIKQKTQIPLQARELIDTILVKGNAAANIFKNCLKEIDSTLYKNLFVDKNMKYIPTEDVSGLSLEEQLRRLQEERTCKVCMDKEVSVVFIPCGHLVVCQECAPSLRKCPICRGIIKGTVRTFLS
row,Variant,effect of a mutation on the interaction
1,H164R,with no effect

# Variants of: B3
# Conditions: with ddx6_human DDX6, P26196
# Remark: another data set of the same source
row,Variant,effect of a mutation on the interaction
1,H164R,with no effect

# Variants of: B3
# Conditions: with casp9_human CASP9, P55211
# casp9_human CASP9, P55211, sequence (P55211 whole entry): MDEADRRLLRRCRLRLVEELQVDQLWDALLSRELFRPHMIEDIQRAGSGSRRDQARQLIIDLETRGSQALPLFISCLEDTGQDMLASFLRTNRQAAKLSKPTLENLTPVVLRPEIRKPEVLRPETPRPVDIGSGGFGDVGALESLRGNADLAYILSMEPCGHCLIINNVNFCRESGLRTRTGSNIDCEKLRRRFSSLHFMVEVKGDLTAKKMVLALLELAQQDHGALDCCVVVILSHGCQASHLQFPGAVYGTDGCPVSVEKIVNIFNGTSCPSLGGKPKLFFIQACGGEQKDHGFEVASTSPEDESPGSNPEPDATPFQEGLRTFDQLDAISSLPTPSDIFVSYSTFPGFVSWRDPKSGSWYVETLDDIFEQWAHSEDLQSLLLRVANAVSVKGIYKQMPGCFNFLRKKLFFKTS
row,Variant,effect of a mutation on the interaction
1,H164R,with no effect

# Variants of: B3
# Conditions: with birc2_human BIRC2, Q13490
# Remark: another data set of the same source
row,Variant,effect of a mutation on the interaction
1,H164R,with no effect

# Variants of: B3
# Conditions: with phf1_human PHF1, O43189
# Remark: another data set of the same source
row,Variant,effect of a mutation on the interaction
1,H164R,with no effect

# Variants of: B3
# Conditions: with casp9_human CASP9, P55211
# Remark: another data set of the same source
row,Variant,effect of a mutation on the interaction
1,H164R,with no effect

# Variants of: B4
# Conditions: with S100B
row,Variant,effect of a mutation on the interaction
1,A180T,disrupting interaction strength
2,H272D,disrupting interaction strength

# Variants of: B5
# Conditions: with cetn1_human CETN1, Q12798
# cetn1_human CETN1, Q12798, sequence (Q12798 whole entry): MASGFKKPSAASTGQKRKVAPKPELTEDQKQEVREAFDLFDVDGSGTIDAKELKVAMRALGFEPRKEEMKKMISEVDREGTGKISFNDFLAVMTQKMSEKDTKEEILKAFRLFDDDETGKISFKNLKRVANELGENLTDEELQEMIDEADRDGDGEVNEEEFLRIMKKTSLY
row,Variant,effect of a mutation on the interaction
1,H36R,with no effect
2,R302K,with no effect
3,I85T,with no effect
4,I175M,with no effect
5,A446T,with no effect
6,D148N,with no effect

# Variants of: B5
# Conditions: with cetn2_human CETN2, P41208
# cetn2_human CETN2, P41208, sequence (P41208 whole entry): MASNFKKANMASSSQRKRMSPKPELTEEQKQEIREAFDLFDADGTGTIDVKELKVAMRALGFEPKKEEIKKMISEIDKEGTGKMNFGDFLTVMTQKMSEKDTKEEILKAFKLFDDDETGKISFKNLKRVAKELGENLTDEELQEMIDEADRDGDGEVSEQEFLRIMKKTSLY
row,Variant,effect of a mutation on the interaction
1,H36R,with no effect

# Variants of: B6
# Conditions: with rbtn2_human LMO2, P25791
# rbtn2_human LMO2, P25791, sequence (P25791 whole entry): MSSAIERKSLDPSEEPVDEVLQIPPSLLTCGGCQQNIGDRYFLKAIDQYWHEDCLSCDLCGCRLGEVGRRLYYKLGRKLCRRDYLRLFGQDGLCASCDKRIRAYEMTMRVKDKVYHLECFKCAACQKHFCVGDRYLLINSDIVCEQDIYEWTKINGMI
row,Variant,effect of a mutation on the interaction
1,D118G,with no effect
2,N464K,disrupting interaction strength

# Variants of: B6
# Conditions: with fhl3_human FHL3, Q13643
# fhl3_human FHL3, Q13643, sequence (Q13643 whole entry): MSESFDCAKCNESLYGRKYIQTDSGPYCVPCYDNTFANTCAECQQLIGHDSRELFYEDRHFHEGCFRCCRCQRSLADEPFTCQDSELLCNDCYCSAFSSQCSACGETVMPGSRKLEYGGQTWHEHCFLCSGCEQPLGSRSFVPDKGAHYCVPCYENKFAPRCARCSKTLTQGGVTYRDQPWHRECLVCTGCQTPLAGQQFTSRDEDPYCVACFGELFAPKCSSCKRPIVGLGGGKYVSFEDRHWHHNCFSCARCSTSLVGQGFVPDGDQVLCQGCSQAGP
row,Variant,effect of a mutation on the interaction
1,D118G,with no effect
2,N464K,with no effect
